Measured values as given in patent US7211424B1, “Mammalian Subtilisin/kexin isozyme SKI-1: a proprotein convertase with a unique cleavage specificity” (Institut de Recherches Cliniques de Montreal, priority 1999, dated 2007).

Columns and labels:
[1] = target: T1, peptide II, hSREBP-2(504-530)
T1 chain: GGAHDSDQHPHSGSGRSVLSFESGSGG

[2] = target: T2, peptide VI, hSKI-1 (156-172)
T2 chain: WQSSRPLRRASLSLGSG

[3] = target: T3, peptide V, hSKI-1 (182-188+LE)
T3 chain: SRRLLRALE

[4] = target: T4, peptide IV, hSKI-1 (174-188+LE)
T4 chain: WHATGRHSSRRLLRALE

[5] = target: soya bean trypsin inhibitor
[6] = target: T5, peptide III, hSKI-1(174-191)
T5 chain: WHATGRHSSRRLLRAIPR

[7] = target: T6, peptide IX, hSKI-1 (128-142)
T6 chain: PQRKVFRSLKYAESD

[8] = target: T7, peptide I, hproBDNF(50-63)
T7 chain: KAGSRGLTSLADTF

[9] = target: T8, peptide VII, hSKI-1 (187-201)
T8 chain: RAIPRQVAQTLQADV

[10] = target: T9, peptide VIII, hSKI-1 (128-136)
T9 chain: PQRKVFRSL

B1: BTMD-SKI-1 (protein)
chain: RAIPRQVAQTLQADVLWQMGYTGANVRVAVFDTGLSEKHPHFKNVKERTNWTNERTLDDGLGHGTFVAGVIASMRECQGFAPDAELHIFRVFTNNQVSYTSWFLDAFNYAILKKIDVLNLSIGGPDFMDHPFVDKVWELTANNVIMVSAIGNDGPLYGTLNNPADQMDVIGVGGIDFEDNIARFSSRGMTTWELPGGYGRMKPDIVTYGAGVRGSGVKGGCRALSGTSVASPVVAGAVTLLVSTVQKRELVNPASMKQALIASARRLPGVNMFEQGHGKLDLLRAYQILNSYKPQASLSPSYIDLTECPYMWPYCSQPIYYGGMPTVVNVTILNGMGVTGRIVDKPDWQPYLPQNGDNIEVAFSYSSVLWPWSGYLAISISVTKKAASWEGIAQGHVMITVASPAETESKNGAEQTSTVKLPIKVKIIPTPPRSKRVLWDQYHNLRYPPGYFPRDNLRMKNDPLDWNGDHIHTNFRDMYQHLRSMGYFVEVLGAPFTCFDASQYGTLLMVDSEEEYFPEEIAKLRRDVDNGLSLVIFSDWYNTSVMRKVKFYDENTRQWWMPDTGGANIPALNELLSVWNMGFSDGLYEGEFTLANHDMYYASGCSIAKFPEDGVVITQTFKDQGLEVLKQETAVVENVPILGLYQIPAEGGGRIVLYGDSNCLDDSHRQKDCFWLLDALLQYTSYGVTPPSLSHSGNRQRPPSGAGSVTPERMEGNHLHRYSKVLEAHLGDPKPRPLPACPRLSWAKPQPLNETAPSNLWKHQKLLSIDLDKVVLPNFRSNRPQVRPLSPGESGAWDIPGGIMPGRYNQEHHHHHH
Hydrolysis of SREBP-2 peptide (% of control) at 0.01 mM cystatin (cystatin): 100 % of control
Km(app) [1]: 124 µM
Vmax(app) [1]: 0.5 nmol/h
Vmax(app)/Km(app) [1]: 0.004 h^-1L^-1
cleavage of synthetic peptide (RP-HPLC, MALDI-TOF) [1]: The expected cleavages were confirmed and did not occur using WT-/empty vector-derived media
cleavage of synthetic peptide [2]: ^1No cleavage detected even with a 10-fold excess of enzyme.
Km(app) [3]: 109 µM
Vmax(app) [3]: 1.1 nmol/h
Vmax(app)/Km(app) [3]: 0.01 h^-1L^-1
catalytic efficiency relative to peptide IV [3]: caused a 4-fold reduction in catalytic efficiency
cleavage of synthetic peptide [3]: this change significantly improved the processing of these peptides
difference in Vmax(app)/Km(app) between peptides IV and V [3]: 2 fold
Km(app) [4]: 17 µM
Vmax(app) [4]: 0.4 nmol/h
Vmax(app)/Km(app) [4]: 0.023 h^-1L^-1
Vmax(app)/Km(app) relative to peptides I and II [4]: 5-10-fold higher than those obtained with peptides I and II
cleavage of synthetic peptide [4]: this change significantly improved the processing of these peptides
Hydrolysis of SREBP-2 peptide (% of control) at 0.5 mg/ml SBTI [5]: 100 % of control
cleavage of synthetic peptide (RP-HPLC, mass spectrometry) [6]: the only one with detectable cleavage by SKI-1-containing concentrated medium ... was peptide III
cleavage of synthetic peptide at K137↓ [7]: the PQRKVFRSLK^137↓YAESD (SEQ. ID. NO. 45) cleavage was only seen in SKI-1-containing medium
Km(app) [8]: 169 µM
Vmax(app) [8]: 0.4 nmol/h
Vmax(app)/Km(app) [8]: 0.002 h^-1L^-1
cleavage of synthetic peptide (RP-HPLC, MALDI-TOF) [8]: The expected cleavages were confirmed and did not occur using WT-/empty vector-derived media
cleavage of synthetic peptide [9]: ^1No cleavage detected even with a 10-fold excess of enzyme.
cleavage of synthetic peptide [10]: ^2Cleavage detected but not attributable to SKI-1.
